Source: patent publication US20050100919, “Nucleic acid-based detection” (Brandeis University, a Massachusetts corporation, published 2005)

Tests used:
[1] = target: T1, thrombin (UniProt P00734;P00734 P00734:328-363,P00734:364-622); test: half-maximum effect, fluorescence decrease, TBB (20 mM Tris-HCl, 140 mM NaCl, 5 mM KCl, 1 mM MgCl2, 1 mM CaCl2, pH 7.5)
[2] = target: T1, thrombin; test: fluorescence ratio at 100 nM thrombin in TBB; 0.7 in TE
[3] = target: T1, thrombin; test: fluorescence change at 100 nM thrombin in TE
[4] = target: factor IX (UniProt P00740 P00740:47-461); test: specificity control; no effect on beacon fluorescence in TE; conditions: tags: purchased from Enzyme Research Lab; label: 5'-fluorescein, 3'-DABCYL; alternate 5-bp stem-loop / G4
Protocol: Thrombin binding assay using a fluorescence spectrometer: The aptamers were diluted to a concentration of 10 uM in TBB or TE (20 mM Tris-HCl, 1 mM EDTA, pH7.5) and heated at 99° for three min and cooled down to room temperature prior to the experiment. The experiment was performed using 5-40 nM of aptamer in 2 ml. All of the fluorescence intensity measurements were performed at 24° C. The excitation wavelength was 495 nm and the emission was monitored at its peak, 516 nm (in TE) or 518 nm (in TBB). A small volume (0.5-3 μl) of thrombin (final concentration of 0-250 nM) was added and the change of emission was monitored.
To confirm the binding specificity of G15D5dMB, we used factor IX, which is a plasma serine protease, as is thrombin, and shares a sequence identity of 37% in the catalytic domain with thrombin.

[5] = target: T1, thrombin; test: competition; affinity increase relative to G15D5d, filter binding competition in TE
[6] = target: T1, thrombin; test: fluorescence beacon titration, TE buffer (20 mM Tris-HCl, 1 mM EDTA, pH 7.5), 24 C; estimated
[7] = target: T1, thrombin; test: fluorescence beacon titration, TE buffer, 24 C; estimated
[8] = target: T1, thrombin; test: competition; filter binding competition against radiolabeled G15D5d, TBB; displacement curve only in figure
[9] = target: T1, thrombin; test: fluorescence change at 100 nM thrombin in TBB; not saturated at 250 nM

Sequence of factor IX (P00740 47-461, one chain of several): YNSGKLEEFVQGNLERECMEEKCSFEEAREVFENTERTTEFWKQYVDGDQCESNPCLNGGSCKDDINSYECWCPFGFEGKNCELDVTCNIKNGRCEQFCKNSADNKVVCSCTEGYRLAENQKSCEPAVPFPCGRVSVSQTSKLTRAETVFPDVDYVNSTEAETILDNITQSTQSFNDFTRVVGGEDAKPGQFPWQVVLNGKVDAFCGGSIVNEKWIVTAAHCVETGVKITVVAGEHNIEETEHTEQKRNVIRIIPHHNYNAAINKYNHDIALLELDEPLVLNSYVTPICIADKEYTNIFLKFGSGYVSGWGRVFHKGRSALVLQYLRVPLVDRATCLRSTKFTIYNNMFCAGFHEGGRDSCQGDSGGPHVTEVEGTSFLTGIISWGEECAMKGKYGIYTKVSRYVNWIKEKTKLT

TTTTTGGTTGGTGTGGTTGG (ssDNA) [G15D5ndMB] showed an EC50 [1] of ~80 nM and an activity [2] of 0.5 fold.

In the case of CCAACGGTTGGTGTGGTTGG (ssDNA) [G15D5dMB], the activity [3] is reported as 2.3 fold, the binding result [4] is reported as “no binding” and the binding signal [5] is reported as ~6 fold. It also gave a Kd [6] of 3 nM.

CCAACCGGTTGGTGTGGTTGG (ssDNA) [G15D6dMB] showed an activity [3] of 1.7 fold and a Kd [7] of 12 nM.

GGTTGGTGTGGTTGG (ssDNA) [G15D]: binds [8].

With CCAAGGTTGGTGTGGTTGG (ssDNA) [G15D4dMB] the activity [9] was 1.5 fold.
